# From the Immune Epitope Database (IEDB)
# Tests used:
# [1] = molecular target: HLA-A*02:19; assay: IEDB peptide-MHC binding, purified MHC/competitive/fluorescence; filed as Kd, often an IC50 or EC50 that approximates it; ≥ and ≤ were set here for values at or beyond the usual limits of such assays; settings: source organism: Pseudomonas aeruginosa UCBPP-PA14
# [2] = molecular target: HLA-B*40:01; assay: as above; settings: source organism: Pseudomonas aeruginosa UCBPP-PA14
# [3] = molecular target: HLA-B*35:01; assay: as above; settings: source organism: Pseudomonas aeruginosa UCBPP-PA14
# [4] = molecular target: HLA-A*02:16; assay: as above; settings: source organism: Pseudomonas aeruginosa UCBPP-PA14
# [5] = molecular target: HLA-A*30:01; assay: as above
# [6] = molecular target: HLA-A*02:12; assay: as above; settings: source organism: Pseudomonas aeruginosa UCBPP-PA14
# [7] = molecular target: HLA-A*01:01; assay: as above; settings: source organism: Pseudomonas aeruginosa UCBPP-PA14
# [8] = molecular target: HLA-B*27:05; assay: as above; settings: source organism: Pseudomonas aeruginosa UCBPP-PA14
# [9] = molecular target: HLA-B*58:01; assay: as above; settings: source organism: Pseudomonas aeruginosa UCBPP-PA14
# [10] = molecular target: HLA-B*15:01; assay: as above; settings: source organism: Pseudomonas aeruginosa UCBPP-PA14
# [11] = molecular target: HLA-B*46:01; assay: as above; settings: source organism: Pseudomonas aeruginosa UCBPP-PA14
# [12] = molecular target: HLA-B*07:02; assay: as above; settings: source organism: Pseudomonas aeruginosa UCBPP-PA14
# [13] = molecular target: HLA-A*69:01; assay: as above
# [14] = molecular target: HLA-A*31:01; assay: as above; settings: source organism: Pseudomonas aeruginosa UCBPP-PA14
# [15] = molecular target: HLA-A*26:01; assay: as above; settings: source organism: Pseudomonas aeruginosa UCBPP-PA14
# [16] = molecular target: HLA-A*02:50; assay: as above; settings: source organism: Pseudomonas aeruginosa UCBPP-PA14
# [17] = molecular target: HLA-A*02:11; assay: as above; settings: source organism: Pseudomonas aeruginosa UCBPP-PA14
# [18] = molecular target: HLA-A*02:06; assay: as above; settings: source organism: Pseudomonas aeruginosa UCBPP-PA14
# [19] = molecular target: HLA-A*03:01; assay: as above; settings: source organism: Pseudomonas aeruginosa UCBPP-PA14
# [20] = molecular target: HLA-A*02:01; assay: as above; settings: source organism: Pseudomonas aeruginosa UCBPP-PA14
# [21] = molecular target: HLA-A*24:02; assay: as above; settings: source organism: Pseudomonas aeruginosa UCBPP-PA14
# [22] = molecular target: HLA-B*18:01; assay: as above; settings: source organism: Pseudomonas aeruginosa UCBPP-PA14
# [23] = molecular target: HLA-A*11:01; assay: as above; settings: source organism: Pseudomonas aeruginosa UCBPP-PA14
# [24] = molecular target: HLA-B*40:01; assay: IEDB peptide-MHC binding, purified MHC/direct/fluorescence; filed as Kd, often an IC50 or EC50 that approximates it; ≥ and ≤ were set here for values at or beyond the usual limits of such assays
# [25] = molecular target: HLA-B*57:01; assay: as above
# [26] = molecular target: HLA-A*01:01; assay: as above
# [27] = molecular target: HLA-B*44:02; assay: as above; settings: source organism: Camelpox virus M-96
# [28] = molecular target: HLA-B*27:05; assay: as above
# [29] = molecular target: HLA-B*58:01; assay: as above
# [30] = molecular target: HLA-B*48:01; assay: as above
# [31] = molecular target: HLA-B*07:02; assay: as above
# [32] = molecular target: HLA-A*69:01; assay: as above; settings: source organism: Camelpox virus M-96
# [33] = molecular target: HLA-A*31:01; assay: as above
# [34] = molecular target: HLA-A*26:03; assay: as above; settings: source organism: Variola virus
# [35] = molecular target: HLA-B*18:01; assay: as above
# [36] = molecular target: HLA-A*11:01; assay: as above
# [37] = molecular target: HLA-B*15:17; assay: IEDB peptide-MHC binding, purified MHC/competitive/fluorescence; filed as Kd, often an IC50 or EC50 that approximates it; ≥ and ≤ were set here for values at or beyond the usual limits of such assays; settings: source organism: Vaccinia virus Copenhagen
# [38] = molecular target: HLA-A*68:02; assay: as above; settings: source organism: Vaccinia virus Copenhagen
# [39] = molecular target: HLA-B*39:01; assay: as above; settings: source organism: Vaccinia virus Copenhagen
# [40] = molecular target: HLA-B*15:09; assay: as above
# [41] = molecular target: HLA-B*51:01; assay: IEDB peptide-MHC binding, purified MHC/direct/fluorescence; filed as Kd, often an IC50 or EC50 that approximates it; ≥ and ≤ were set here for values at or beyond the usual limits of such assays; settings: source organism: Bacillus anthracis
# [42] = molecular target: HLA-A*30:01; assay: as above; settings: source organism: Bacillus cereus 03BB108
# [43] = molecular target: HLA-B*15:17; assay: as above; settings: source organism: Bacillus anthracis
# [44] = molecular target: HLA-B*15:01; assay: as above; settings: source organism: Bacillus anthracis
# [45] = molecular target: HLA-B*46:01; assay: as above; settings: source organism: Bacillus anthracis
# [46] = molecular target: HLA-B*38:01; assay: as above; settings: source organism: Bacillus cereus 03BB108
# [47] = molecular target: HLA-A*03:01; assay: as above; settings: source organism: Bacillus anthracis
# [48] = molecular target: HLA-A*02:01; assay: as above; settings: source organism: Bacillus anthracis
# [49] = source organism: Pseudomonas aeruginosa UCBPP-PA14
# [50] = source organism: Camelpox virus M-96
# [51] = source organism: Vaccinia virus Copenhagen
# [52] = source organism: Bacillus anthracis
# [53] = source organism: Bacillus anthracis str. A0488
sequence,measurement,setting,value
FLDDASNSA,Kd,[1],0.1 µM
same,Kd,[2],≥ 20 µM
same,Kd,[3],≥ 20 µM
same,Kd,[4],0.0016 µM
same,Kd,[5]; [49],≥ 20 µM
same,Kd,[6],0.0022 µM
same,Kd,[7],≥ 20 µM
same,Kd,[8],≥ 20 µM
same,Kd,[9],≥ 20 µM
same,Kd,[10],≥ 20 µM
same,Kd,[11],≥ 20 µM
same,Kd,[12],≥ 20 µM
same,Kd,[13]; [49],1.01 µM
same,Kd,[14],≥ 20 µM
same,Kd,[15],≥ 20 µM
same,Kd,[16],0.0053 µM
same,Kd,[17],0.0005 µM
same,Kd,[18],0.0067 µM
same,Kd,[19],≥ 20 µM
same,Kd,[20],0.0414 µM
same,Kd,[21],≥ 20 µM
same,Kd,[22],≥ 20 µM
same,Kd,[23],≥ 20 µM
LEYGANYFL,Kd,[24]; [50],0.0033 µM
same,Kd,[25]; [50],≥ 20 µM
same,Kd,[26]; [50],≥ 20 µM
same,Kd,[27],≥ 20 µM
same,Kd,[28]; [50],≥ 20 µM
same,Kd,[29]; [50],≥ 20 µM
same,Kd,[30]; [50],4.39 µM
same,Kd,[31]; [50],≥ 20 µM
same,Kd,[32],1.6 µM
same,Kd,[33]; [50],≥ 20 µM
same,Kd,[34],≥ 20 µM
same,Kd,[35]; [50],0.0117 µM
same,Kd,[36]; [50],≥ 20 µM
same,Kd,[5]; [51],≥ 20 µM
same,Kd,[37],≥ 20 µM
same,Kd,[38],2.26 µM
same,Kd,[39],3 µM
same,Kd,[40]; [51],≥ 20 µM
WFREDRSPV,Kd,[24]; [52],≥ 20 µM
same,Kd,[41],≥ 20 µM
same,Kd,[25]; [52],≥ 20 µM
same,Kd,[42],≥ 20 µM
same,Kd,[43],≥ 20 µM
same,Kd,[26]; [52],≥ 20 µM
same,Kd,[28]; [52],≥ 20 µM
same,Kd,[29]; [52],≥ 20 µM
same,Kd,[44],≥ 20 µM
same,Kd,[30]; [52],≥ 20 µM
same,Kd,[45],≥ 20 µM
same,Kd,[31]; [52],≥ 20 µM
same,Kd,[33]; [52],≥ 20 µM
same,Kd,[46],≥ 20 µM
same,Kd,[47],≥ 20 µM
same,Kd,[48],≥ 20 µM
same,Kd,[35]; [52],0.145 µM
same,Kd,[36]; [52],≥ 20 µM
same,Kd,[13]; [53],≥ 20 µM
same,Kd,[40]; [53],≥ 20 µM
